Reference: patent US8975259B2, “Compositions and methods for inhibiting G protein signaling” (University of Rochester, priority 2007, dated 2015)
Like-named read-outs stand apart in the source and are kept apart here.

How the values were obtained:
Gβ1γ2 = Gβ1γ2 (UniProt P54311+P63212); assay: Competition phage ELISA: inhibition of SIGK-phage binding to immobilized biotinylated Gβ1γ2; design: made in house; host or cells: Sf9 insect cells (baculovirus; co-expressed with BirA and (His)6-Gαi1, from which βγ was eluted); species or system rat; conditions: for binding to the G protein β subunit: result in words
Procedure: Phage ELISA assays used to assess peptide binding to wild-type and mutant b-βγ were performed according to standard methods (Smrcka and Scott (2002) Methods Enzymol. 344:557-76). Briefly, 1 μg streptavidin was immobilized in the well of a […] overnight at 4° C. The wells were blocked with 100 μL of 2% bovine serum albumin (BSA) in Tris-buffered saline (TBS) for 1 hour at 4° C. followed by three washes of IX TBS/0.5% TWEEN®. […] The wells were washed, followed by the addition of IxIO^6 to IxIO^10 phage particles and incubated at 4° C. for 3 hours. The wells were then washed six times with TBS/0.5% TWEEN® followed by addition of 40 μL of 1:5000 dilution of anti-M13 antibody (Pharmacia, Uppsala, Sweden) and incubated at room temperature for 1 hour. The wells were washed, followed by the addition of 40 μL of (2,2′-Azino-bis (3-ethylbenzthiazoline)-6-sulfonic acid (ABTS) and the colorimetric reaction was monitored at 405 nm. Nonspecific binding was subtracted for each reading.
A phage ELISA assay was used to determine whether small molecules identified in the computational screen could interact with the Gβy protein interaction surface. […] The screen was based on a reduction in the optical density (OD) of wells containing Gβγ subunits and phage. […] Three background wells contained no βy subunits.
As disclosed herein, biotinylated Gβy subunits were immobilized on the surface of a 96-well plate coated with streptavidin, phage displaying Gβγ-binding peptides were subsequently added and binding in the presence and absence of test compounds detected with an anti-phage antibody.
The phage ELISA assay was used to rapidly screen the ability of compounds to bind to the protein interaction “hot spot” based on the method of Scott et. al (Scott et al., 2001). This assay is performed in the presence of detergent (0.5% Tween) to eliminate non-specific compound aggregation artifacts.
Compounds/DMSO and 0.1×10^10 phage were added simultaneously and subsequently incubated for 1 h at room temperature. Plates were then washed with 1× Tris-buffered saline/0.5% Tween 20 and incubated with anti-M13, HRP-conjugated antibody (Amersham, Chalfont St. Giles, Buckinghamshire, UK). Phage binding was determined by monitoring A405 upon addition of 2,2′-azino-bis(3-ethylbenzothiazoline-6-sulfonic acid) (Sigma Aldrich).

Gβ1γ2 (Gβ1 mutants) [1] = target: T1, Gβ1γ2 (Gβ1 mutants) (UniProt P54311+P63212, L117A); assay: Phage ELISA: binding of peptide-displaying phage to wild-type or alanine-substituted b-βγ; design: species or system rat; conditions: Gβ1 Leu117Ala; mean ± SD
T1 construct: made in house; host or cells: Sf9 insect cells (baculovirus), partially purified via (His)6-Gαi1 on Ni-NTA
Description: (§1) Wild-type Gβ1 and Gp1 mutants were made in the baculovirus vector PDW464 which encodes a biotinylation site at a lysine upstream of the amino terminus of Gβ1 (Goubaeva, et al. (2003) supra). Mutants were generated by overlap extension PCR using standard protocols. The wild-type and mutant Gβ1 constructs consisted of a 20 amino acid biotin acceptor peptide (BAP) sequence fused in-frame with the amino-terminus of rat Gβ1 subunit. When coexpressed with biotin holoenzyme synthetase (BirA) in Sf9 cells, the Gβ1 subunit becomes covalently biotinylated in vivo at the specific lysine acceptor residue in the BAP. Using this approach, 1-2 mg protein of purified protein can be obtained per liter of Sf9 insect cells. As 45 ng of protein is used in the phage ELISA assay, a single purification is sufficient for 10,000 to 30,000 binding assays.
(§2) Phage ELISA assays used to assess peptide binding to wild-type and mutant b-βγ were performed according to standard methods (Smrcka and Scott (2002) Methods Enzymol. 344:557-76). Briefly, 1 μg streptavidin was immobilized in the well of a […] overnight at 4° C. The wells were blocked with 100 μL of 2% bovine serum albumin (BSA) in Tris-buffered saline (TBS) for 1 hour at 4° C. followed by three washes of IX TBS/0.5% TWEEN®. Forty μL of 25 nM bGβ1γ2 in TBS/0.5% TWEEN® was added to each well and incubated at 4° C. for 1.5 hour. The wells were washed, followed by the addition of IxIO^6 to IxIO^10 phage particles and incubated at 4° C. for 3 hours. The wells were then washed six times with TBS/0.5% TWEEN® followed by addition of 40 μL of 1:5000 dilution of anti-M13 antibody (Pharmacia, Uppsala, Sweden) and incubated at room temperature for 1 hour. The wells were washed, followed by the addition of 40 μL of (2,2′-Azino-bis (3-ethylbenzthiazoline)-6-sulfonic acid (ABTS) and the colorimetric reaction was monitored at 405 nm. Nonspecific binding was subtracted for each reading.
(§3) The nine peptides were selected to represent the different consensus groups of peptides previously identified (See Scott et al. (2001) supra; Table 15) and to compare binding characteristics within and between consensus groups. […] As disclosed herein, the binding signal obtained in the ELISA assay was correlated to a loss in affinity by comparing the results to behavior of the peptide in a solution based assay. […] For the purposes of present disclosure, any substitution that decreased the binding to less than 20% of the wild-type binding was considered to be a critical binding contact for that peptide.

Gβ1γ2 (Gβ1 mutants) [2] = target: T2, Gβ1γ2 (Gβ1 mutants) (UniProt P54311+P63212, Y145A); assay: as above; design: species or system rat; conditions: Gβ1 Tyr145Ala; mean ± SD
T2 construct: made in house; host or cells: Sf9 insect cells (baculovirus), partially purified via (His)6-Gαi1 on Ni-NTA
Description: as §1, §2, §3

Gβ1γ2 (Gβ1 mutants) [3] = target: T3, Gβ1γ2 (Gβ1 mutants) (UniProt P54311+P63212, K57A); assay: as above; design: species or system rat; conditions: Gβ1 Lys57Ala; mean ± SD
T3 construct: made in house; host or cells: Sf9 insect cells (baculovirus), partially purified via (His)6-Gαi1 on Ni-NTA
Description: as §1, §2, §3

Gβ1γ2 (Gβ1 mutants) [4] = target: T4, Gβ1γ2 (Gβ1 mutants) (UniProt P54311+P63212, N230A); assay: as above; design: species or system rat; conditions: Gβ1 Asn230Ala; mean ± SD
T4 construct: made in house; host or cells: Sf9 insect cells (baculovirus), partially purified via (His)6-Gαi1 on Ni-NTA
Description: as §1, §2, §3

Gβ1γ2 (Gβ1 mutants) [5] = target: T5, Gβ1γ2 (Gβ1 mutants) (UniProt P54311+P63212, D186A); assay: as above; design: species or system rat; conditions: Gβ1 Asp186Ala; mean ± SD
T5 construct: made in house; host or cells: Sf9 insect cells (baculovirus), partially purified via (His)6-Gαi1 on Ni-NTA
Description: as §1, §2, §3

Gβ1γ2 (Gβ1 mutants) [6] = target: T6, Gβ1γ2 (Gβ1 mutants) (UniProt P54311+P63212, M101A); assay: as above; design: species or system rat; conditions: Gβ1 Met101Ala; mean ± SD
T6 construct: made in house; host or cells: Sf9 insect cells (baculovirus), partially purified via (His)6-Gαi1 on Ni-NTA
Description: as §1, §2, §3

Gβ1γ2 (Gβ1 mutants) [7] = target: T7, Gβ1γ2 (Gβ1 mutants) (UniProt P54311+P63212, M188A); assay: as above; design: species or system rat; conditions: Gβ1 Met188Ala; mean ± SD
T7 construct: made in house; host or cells: Sf9 insect cells (baculovirus), partially purified via (His)6-Gαi1 on Ni-NTA
Description: as §1, §2, §3

Gβ1γ2 (Gβ1 mutants) [8] = target: T8, Gβ1γ2 (Gβ1 mutants) (UniProt P54311+P63212, H311A); assay: as above; design: species or system rat; conditions: Gβ1 His311Ala; mean ± SD
T8 construct: made in house; host or cells: Sf9 insect cells (baculovirus), partially purified via (His)6-Gαi1 on Ni-NTA
Description: as §1, §2, §3

Gβ1γ2 (Gβ1 mutants) [9] = target: T9, Gβ1γ2 (Gβ1 mutants) (UniProt P54311+P63212, Y59A); assay: as above; design: species or system rat; conditions: Gβ1 Tyr59Ala; mean ± SD
T9 construct: made in house; host or cells: Sf9 insect cells (baculovirus), partially purified via (His)6-Gαi1 on Ni-NTA
Description: as §1, §2, §3

Gβ1γ2 (Gβ1 mutants) [10] = target: T10, Gβ1γ2 (Gβ1 mutants) (UniProt P54311+P63212, W332A); assay: as above; design: species or system rat; conditions: Gβ1 Trp332Ala; mean ± SD
T10 construct: made in house; host or cells: Sf9 insect cells (baculovirus), partially purified via (His)6-Gαi1 on Ni-NTA
Description: as §1, §2, §3

Gβ1γ2 (Gβ1 mutants) [11] = target: T11, Gβ1γ2 (Gβ1 mutants) (UniProt P54311+P63212, R314A); assay: as above; design: species or system rat; conditions: Gβ1 Arg314Ala; mean ± SD
T11 construct: made in house; host or cells: Sf9 insect cells (baculovirus), partially purified via (His)6-Gαi1 on Ni-NTA
Description: as §1, §2, §3

Gβ1γ2 (Gβ1 mutants) [12] = target: T12, Gβ1γ2 (Gβ1 mutants) (UniProt P54311+P63212, W99A); assay: as above; design: species or system rat; conditions: Gβ1 Trp99Ala; mean ± SD
T12 construct: made in house; host or cells: Sf9 insect cells (baculovirus), partially purified via (His)6-Gαi1 on Ni-NTA
Description: as §1, §2, §3

Gβ1γ2 (Gβ1 mutants) [13] = target: T13, Gβ1γ2 (Gβ1 mutants) (UniProt P54311+P63212, D246S); assay: as above; design: species or system rat; conditions: Gβ1 Asp246Ser; mean ± SD
T13 construct: made in house; host or cells: Sf9 insect cells (baculovirus), partially purified via (His)6-Gαi1 on Ni-NTA
Description: as §1, §2, §3

Question: Which “binding to the G protein β subunit” value (Gβ1γ2) does the source give for `Cc1c2ccc(=O)cc-2oc2cc(O)ccc12` [6-hydroxy-9-methyl-3H-xanthen-3-one] here?
Answer: Its value is “not to bind”.

Question: What does the source list for WCPPKAMTQLGIKAC [Compound C14]?
Answer: % of Wild-Type Signal (Gβ1γ2 (Gβ1 mutants) [1]): 3.8 ± 9.2%; % of Wild-Type Signal (Gβ1γ2 (Gβ1 mutants) [2]): 1.9 ± 5.9%; % of Wild-Type Signal (Gβ1γ2 (Gβ1 mutants) [3]): 3.0 ± 5.0%; % of Wild-Type Signal (Gβ1γ2 (Gβ1 mutants) [4]): 60.0 ± 26.5%; % of Wild-Type Signal (Gβ1γ2 (Gβ1 mutants) [5]): 3.6 ± 1.9%; % of Wild-Type Signal (Gβ1γ2 (Gβ1 mutants) [6]): 1.1 ± 4.9%; % of Wild-Type Signal (Gβ1γ2 (Gβ1 mutants) [7]): 9.9 ± 3.8%; % of Wild-Type Signal (Gβ1γ2 (Gβ1 mutants) [8]): 6.1 ± 3.4%; % of Wild-Type Signal (Gβ1γ2 (Gβ1 mutants) [9]): 3.6 ± 2.0%; % of Wild-Type Signal (Gβ1γ2 (Gβ1 mutants) [10]): 1.6 ± 2.4%; % of Wild-Type Signal (Gβ1γ2 (Gβ1 mutants) [11]): 3.9 ± 7.9%; % of Wild-Type Signal (Gβ1γ2 (Gβ1 mutants) [12]): 10.1 ± 3.3%; % of Wild-Type Signal (Gβ1γ2 (Gβ1 mutants) [13]): 6.3 ± 13.9%

Question: How did the IC50 (Gβ1γ2; Table 8, read-out: IC50) turn out when `Nc1ccc(-c2ccc(Nc3cc(S(=O)(=O)O)c(N)c4c3C(=O)c3ccccc3C4=O)cc2)c(S(=O)(=O)O)c1` [Compound M125] was run?
Answer: The IC50 was 68 µM.

Question: And the IC50 (Gβ1γ2; Table 18, compounds identified in Elisa screen, read-out: IC50)?
Answer: Its IC50 is 18 µM.

Question: With `Nc1cccc(Nc2cc(S(=O)(=O)O)c(N)c3c2C(=O)c2ccccc2C3=O)c1` [drawing 52] as the molecule, how does the IC50 (Gβ1γ2; Table 2, read-out: Elisa IC50) read?
Answer: Its IC50 is 19 µM.

Question: How did the IC50 (Gβ1γ2; Table 2, read-out: Elisa IC50) turn out when `Nc1ccc(Nc2cc(S(=O)(=O)O)c(N)c3c2C(=O)c2ccccc2C3=O)cc1` [drawing 51] was run?
Answer: Its IC50 is 12 µM.

Question: Which “binding to the G protein β subunit” value (Gβ1γ2) does the source give for `Cc1c2cc(O)c(=O)cc-2oc2cc(O)c(O)cc12` [2,6,7-trihydroxy-9-methyl-3H-xanthen-3-one] here?
Answer: The value was “did not provide a compound that exhibited binding”.

Question: `O=C(O)C1CC23C(Cl)C(Cl)C(Cl)C(Cl)C2(CC1c1c2ccc(=O)c(O)c-2oc2c(O)c(O)ccc12)C3(Cl)Cl` (stereo not shown) was tested. Which IC50 (Gβ1γ2; Table 6) did it give?
Answer: Its IC50 is 0.2 µM.

Question: How did the IC50 (Gβ1γ2; Table 6) turn out when `O=C(O)c1cccc2cccc(-c3c4ccc(=O)c(O)c-4oc4c(O)c(O)ccc34)c12` [drawing 108] was run?
Answer: The IC50 was 0.15 µM.

Question: With `O=C(O)CCc1c2ccc(=O)cc-2oc2cc(O)ccc12` [3-(6-hydroxy-3-oxo-3H-xanthen-9-yl)propionic acid] as the molecule, how does the “binding to the G protein β subunit” value (Gβ1γ2) read?
Answer: Its value is “Neither of these compounds showed any binding”.

Question: For `CC1C2C=CC1C(c1c3ccc(=O)c(O)c-3oc3c(O)c(O)ccc13)C2C(=O)O` (stereo not shown), which IC50 (Gβ1γ2; Table 6) is on record?
Answer: The IC50 was 0.7 µM.

Question: For `Nc1c(S(=O)(=O)O)cc(Nc2cccc(S(N)(=O)=O)c2)c2c1C(=O)c1ccccc1C2=O` [drawing 50], which IC50 (Gβ1γ2; Table 2, read-out: Elisa IC50) is on record?
Answer: The IC50 was 56 µM.

Question: For `CNc1ccc(Nc2cc(S(=O)(=O)O)c(N)c3c2C(=O)c2ccccc2C3=O)cc1`, which IC50 (Gβ1γ2; Table 2, read-out: Elisa IC50) is on record?
Answer: The IC50 was 59 µM.
